Earlier results on two substances are cited in publication PMC4815360.

Series [1] deals with Endothelin receptor ETA (Homo sapiens) (UniProt P25101). In words: radioligand.
For series [2], the target named is Endothelin receptor ETA (Rattus norvegicus) (UniProt P26684). In words: radioligand.
Series [3] shares this target. The series can be described thus: radioligand binding.
The target of series [4] is Endothelin receptor ETA (Homo sapiens) (UniProt P25101). The series can be described thus: saturation radioligand binding.

UniProt P26684, sequence (P26684 21-426): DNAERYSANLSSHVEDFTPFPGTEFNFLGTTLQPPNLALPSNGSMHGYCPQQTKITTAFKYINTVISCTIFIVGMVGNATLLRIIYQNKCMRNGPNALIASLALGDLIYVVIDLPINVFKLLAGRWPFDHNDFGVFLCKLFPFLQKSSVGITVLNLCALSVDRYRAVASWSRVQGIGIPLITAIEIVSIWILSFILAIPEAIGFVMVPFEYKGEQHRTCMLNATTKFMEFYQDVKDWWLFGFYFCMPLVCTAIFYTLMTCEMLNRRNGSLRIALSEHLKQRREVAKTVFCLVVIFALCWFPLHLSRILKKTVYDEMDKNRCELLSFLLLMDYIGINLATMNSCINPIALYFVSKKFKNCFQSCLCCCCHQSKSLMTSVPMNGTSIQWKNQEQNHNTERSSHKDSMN
UniProt P25101, sequence (P25101 21-427): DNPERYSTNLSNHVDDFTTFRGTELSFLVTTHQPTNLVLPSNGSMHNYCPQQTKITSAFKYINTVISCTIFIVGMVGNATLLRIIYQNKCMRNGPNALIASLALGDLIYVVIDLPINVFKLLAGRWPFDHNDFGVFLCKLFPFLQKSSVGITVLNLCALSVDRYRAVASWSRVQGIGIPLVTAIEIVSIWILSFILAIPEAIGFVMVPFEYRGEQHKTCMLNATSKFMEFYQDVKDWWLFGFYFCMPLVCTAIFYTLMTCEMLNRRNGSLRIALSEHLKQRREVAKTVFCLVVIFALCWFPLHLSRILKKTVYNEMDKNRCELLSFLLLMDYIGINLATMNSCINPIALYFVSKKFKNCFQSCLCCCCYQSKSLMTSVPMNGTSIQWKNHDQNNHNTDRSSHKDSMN

The Kd is the equilibrium constant for the complex coming apart. Consider Endothelin-1 (from UniProt P05305), for which the Kd in series [1] was 0.4 nM; in series [2] it was 0.1 nM.
As to Endothelin-2 (from UniProt P20800), the Kd is 0.1 nM in series [3] and 0.7 nM in series [4].
